For some assays here: This sample holds only a part of the variants without activity.
B1: TPR t1 (parent)
chain: GACCAAUCUGCCCUCAGAGCUCGAGAACAUCUUCGGAUGCAGAGGAGGCAGGCUUCGGUGGCGCGAUAGCGCCAACGUCCUCAACCUCCAAUGCAUCCCACCACAUGAUGAUGCCUGAAGAGCCUUGGUUUUUUG
B2: TPR 5TU (parent)
chain: GGAUCUUCUCGAUCUAACAAAAAAGACAAAUCUGCCACAAAGCUUGAGAGCAUCUUCGGAUGCAGAGGCGGCAGCCUUCGGUGGCGCGAUAGCGCCAACGUUCUCAACUAUGACACGCAAAACGCGUGCUCCGUUGAAUGGAGUUUAUCAUG

Variants of: B1
Assay: polymerase ribozyme fitness, log enrichment relative to wild type (log ratio); higher = more active; in vitro selection for triplet polymerase activity
How it was run: (§1)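 Mutant libraries of each subunit of a heterodimeric triplet polymerase ribozyme were built by PCR and transcribed. Each library went through one round of in vitro selection in triplicate: annealing with biotinylated primer, partner subunit and triplets, frozen incubation at −7 °C, gel excision of extended constructs, streptavidin-bead capture and RT-PCR. Input and output libraries were Illumina-sequenced; only genotypes with ≥10 input reads and ≥1 read per output were kept. Fitness is log2(genotype enrichment/wild-type enrichment), using inverse-variance-weighted replicate averages.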

Row | Variant | polymerase ribozyme fitness (log ratio)
1 | G65A U106G | -6.66
2 | A16U C28U G120U | -3.52
3 | A66U A74G A118U | -0.793
4 | U9G G47C G60C A83C | -3.63
5 | U7A C124A | 2.16
6 | A26U G135U | -4.2
7 | C40A A50U C89U | -1.95
8 | C34U C64U G113U | -5.9
9 | C11A G47A C102A | -4.79
10 | U9A G65C A111U C123U G128A U133C | -4.71
11 | C53A C56G U81G C101G U129C | -2.89
12 | G57U C82G | 0.0757
13 | C15G G71U | -1.94
14 | U32C G60U U87C C101G | -5.05
15 | U78C A83U G107U | -5.42
16 | G120A A121C | -0.98
17 | A18G A27G | -4.94
18 | G57U U92A G120A A121C | -2.28
19 | C20G C76A | -4.94
20 | C22U C85A | -6.28
21 | G69A U96G A121C | -1.72
22 | C13A G69A | -3.52
23 | C49G C56G A91C | -2.49
24 | C12U C70G | -2.05
25 | C28U C88U | -1.61
26 | G19C G45A C72A G120C | -1.67

Row | Variant | polymerase ribozyme fitness (log ratio)
27 | A5G C13G G39A G51A U112C | -2.65
28 | C28U G58C G113C U132C | -4.51
29 | A5U G39A G60U C70U | -2.4
30 | U21A A26G C73U G77A | -2.54
31 | C13U C49A G71C G127C | -1.9
32 | G19U G47U C49G C70U C86U U87C U109A C115U | -6.81
33 | C49A C70G | -4.31
34 | C80U U92C | -2.1
35 | C72U C123A | 0.21
36 | C40A A111U | -4.74
37 | C53A G71A C115U | -3.94
38 | C53U C72A A91G | -1.6
39 | U9C G63A A74C C89A C104A U112C | -5.39
40 | A91C U96A A103U | -7.59
41 | U55G C72U C88G | -1.33
42 | C15U C34A G60C C76U C82G A105G G113U | -6.4
43 | U38A C62G | -3.68
44 | C73G A95C C124U G128U U129C | -1.71
45 | C40G A43U U54G | -2.72
46 | U54A | 0.0154
47 | C11U C15U C56U C72U | -1.82
48 | G10U C22U C98U | -5.53
49 | C11A A118G | -1.55
50 | U21A U54C G93C | -1.26
51 | C20G A119U | -4.11
52 | C31A U96G A121G | -4.67

Row | Variant | polymerase ribozyme fitness (log ratio)
53 | A18C U55G | -1.99
54 | A46C A50U G71U | -1.86
55 | C70G U129A | -4.27
56 | C76G G120A | 0.286
57 | G36C C88U C89A | -3.3
58 | A18U A37U U78G A84U U87A | -4.45
59 | A5G G61A U78A A84C U129A | -1.36
60 | U9G A26C A37G A111U U131C | -5.09
61 | U9C C104U | 0.605
62 | C15G G45C C102A G113U G122A | -5.64
63 | A5U C89G | -1.4
64 | C82G U130A | -1.07
65 | C20A G52C C72A | -2.79
66 | C4U G117A | -2.18
67 | C3A C11G C56G C82U C115U G117A | -1.87
68 | G77U A95C C102A | -3.06
69 | A18U A37U A41G C64U | -2.4
70 | G23U C56U C70G A75U U78A C99A U112A | -6.9
71 | C15G C22U | -5.53
72 | C15G G52U C76U U96C C99U A111G | -7.38
73 | A27U G117U | -4.76
74 | U81A C86A | -2.24
75 | G48U U134G | -0.783
76 | C15U C72U U78A C85G C98A C104G C123U G128C | -6.7
77 | C31U U87C G113U C123G U132A | -5.61
78 | G113U C123G | -1.81

Row | Variant | polymerase ribozyme fitness (log ratio)
79 | C13U G42U G48A | -1.13
80 | C3U G45U | -1.13
81 | G10U A27C G44C G69U C88G G93A C114A | -6.93
82 | U9C G17U C72G A83C | -1.63
83 | U7A G63U C80A | -4.19
84 | C8A G93U U106A | -0.449
85 | C13G G57C C72U G113A | -2.96
86 | U59A G77A C79U U87C C114U | -3.41
87 | C72U G77C | -1.07
88 | G71C C88U | -2.61
89 | G69U A84U A90U | -0.387
90 | G44U G48A C76U C85A C88A | -2.99
91 | A6G C12U C22U A50G C56A | -4.54
92 | U9C A26U G57C A84U | -3.11
93 | C49A G58C C88G A91U C104G A119G U133G | -7.73
94 | C82G A83C | -0.655
95 | G47A G113U C114A A121G | -1.76
96 | C97U C124G | 1.72
97 | A41C C123A G128U | -2.19
98 | A6U G51C A74U G113A C123G | -4.2
99 | C12G U55A C56G U81C | -1.29
100 | C82A C99U G122A | -3.36
101 | G48A C56A | -1.1
102 | G51U G60U C79G | -1.64
103 | C20U G45A G117U G127C U130G | -4.33
104 | C4G A6U A27U A111U | -4.8

Row | Variant | polymerase ribozyme fitness (log ratio)
105 | C13A C40U C62A C123G | -0.545
106 | C13G A41U G117C | -5.86
107 | A46U C53A C73A | -0.67
108 | G63C U129C | -2
109 | C4A A24G | -4.5
110 | G52C U59C G60U A66G | -5.6
111 | G69C C104A U106C U129A | -5.53
112 | A37U G39U | -1.39
113 | C12G C56A C82A | -0.693
114 | C102A U126G | -2.89
115 | G10U G42U C104A G120C | -4.1
116 | C86A U129A | -2.31
117 | G36C G47U G110C | -5.66
118 | G63A G128A | -2.19
119 | G61A U78A U126G | -2.02
120 | A2U A27G U54G C123U | -3.79
121 | C102U C123U | -0.21
122 | G10A C76U U78A C85A U125G | -1.57
123 | C64U G117C C123U U125A | -6.02
124 | U9A C31G G60A C89G A111C G127A | -7
125 | A50G C89G | -1.08
126 | A2C C13A C22A C49G G63C C123U | -5.96
127 | C15A G42U C85U G120C | -1.73
128 | A121U C123A C124G | 2.17
129 | U9A A26C C40U U87C U125G | -5.19
130 | C3U G63C G110A | -2.26

Row | Variant | polymerase ribozyme fitness (log ratio)
131 | C4G C62A C99A G113U | -6.39
132 | G61C C94U U112A | -1.52
133 | A50C U55G G58C G61C U81A | 0.349
134 | G51A C73G | -0.931
135 | C12A C72U C102U C114G | -5.72
136 | C82G G117U C123G C124U | -1.39
137 | G71U G93A | -0.562
138 | A5U U7C C8U C11U C86A | -1.5
139 | G69C C85A G117C A121C | -5.54
140 | A43G G60A G107C C114U G120U U133G | -3.85
141 | G42C A118G | -1.93
142 | A2C C4A A5C U125G | -0.48
143 | U9C C13U A37C G39U G93A | -5.35
144 | C13U C15U | -2.01
145 | C70U A95C U109A | -7.47
146 | U9G G17C A26G | -3.96
147 | C3U C53U | -1.24
148 | A43U C49U A75U G113C C123U | -3.62
149 | G48U U59A G120U | -0.541
150 | A26G C72U | -2.13
151 | G71A U112A | 0.323
152 | C11G G110C | -3.47
153 | C13U G63U C86A U112A | -1.22
154 | C12G C101G G110U | -5.05
155 | C22G G61C C124U U133C | -2.74

Variants of: B2
Assay: as above
How it was run: as §1

Row | Variant | polymerase ribozyme fitness (log ratio)
156 | G50C U56A C57G A66G C95A C99U A113G G140A | -4.04
157 | A22G G83C | -0.878
158 | C93G | -3.35
159 | C75U G83A | -0.0803
160 | C18G C27U A64C C93U | ≤ -4.2
161 | A19G A26U C36G A73U C87A G88C A97G | ≤ -4.2
162 | U6C A47U | -0.576
163 | G50C C96U | -2.14
164 | A19U G62A A73U A110G A121U | ≤ -4.2
165 | G59C U146G | -0.145
166 | U9G G86U A97U C108G | ≤ -4.2
167 | A47G C87G C103U A110G | ≤ -4.2

From the RNAGym collection of RNA variant scans (doi:10.1073/pnas.2313332121)
